Test results as given in patent publication US20140087995A1 (published 2014).
Numbered stars: 1 amine (or outer) side, 2 acyl side, 3 side chain; on linkers, the order of the positions; unused ones are H or OH. Bridge positions count the residues as written; N and C are the ends. Side chains are listed from the residue outwards. Ends that are not written are not given here. * marks the point of attachment. C20 diacid = O=C(O)CCCCCCCCCCCCCCCCCCC(=O)*; γGlu = O=C(O)[C@H](CCC(=O)[*:2])N[*:1]

Experiments:
[1] = target: T1, rat calcitonin receptor (rat, UniProt P32214 25-516); experiment: SPA competition with 125I-calcitonin, membranes with rat calcitonin receptor (Assay VIII)
T1 construct: whole, on cells; Used as membranes prepared from the transfected cells; also called rCTR; rCT
T1 sequence (looked up): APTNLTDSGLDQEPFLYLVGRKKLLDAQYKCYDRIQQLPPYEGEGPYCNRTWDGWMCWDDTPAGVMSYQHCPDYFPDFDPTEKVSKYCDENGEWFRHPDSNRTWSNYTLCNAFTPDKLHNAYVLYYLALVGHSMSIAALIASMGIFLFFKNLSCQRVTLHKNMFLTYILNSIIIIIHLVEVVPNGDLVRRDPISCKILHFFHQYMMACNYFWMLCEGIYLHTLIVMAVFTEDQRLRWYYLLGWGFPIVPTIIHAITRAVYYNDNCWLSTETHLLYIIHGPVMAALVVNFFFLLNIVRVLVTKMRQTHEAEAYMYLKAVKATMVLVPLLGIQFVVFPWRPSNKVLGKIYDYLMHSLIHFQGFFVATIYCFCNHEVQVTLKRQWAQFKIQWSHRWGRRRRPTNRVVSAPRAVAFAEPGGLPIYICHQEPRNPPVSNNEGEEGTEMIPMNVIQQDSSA

[2] = target: T1, rat calcitonin receptor; experiment: ratio of binding IC50 at rat calcitonin receptor to IC50 at rat amylin receptor (reference)
[3] = target: T2, human calcitonin receptor (human, UniProt P30988 25-474); experiment: ratio of binding IC50 at human calcitonin receptor to IC50 at human amylin receptor (reference)
T2 construct: whole, on cells; Used as membranes prepared from the transfected cells; also called hCTR; hCT
T2 sequence (looked up): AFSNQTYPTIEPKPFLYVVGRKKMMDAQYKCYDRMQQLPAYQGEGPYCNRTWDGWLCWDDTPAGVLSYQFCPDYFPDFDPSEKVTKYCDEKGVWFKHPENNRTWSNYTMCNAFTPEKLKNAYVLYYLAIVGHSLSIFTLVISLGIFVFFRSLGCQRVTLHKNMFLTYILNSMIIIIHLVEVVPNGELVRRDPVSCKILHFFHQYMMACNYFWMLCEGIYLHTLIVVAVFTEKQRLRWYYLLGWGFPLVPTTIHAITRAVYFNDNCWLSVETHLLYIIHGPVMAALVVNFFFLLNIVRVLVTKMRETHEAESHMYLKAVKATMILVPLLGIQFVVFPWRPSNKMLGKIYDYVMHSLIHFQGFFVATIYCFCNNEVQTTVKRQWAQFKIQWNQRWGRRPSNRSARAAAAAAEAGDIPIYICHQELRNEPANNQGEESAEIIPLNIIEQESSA
Procedure, shortened: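 Scintillation proximity competition binding on cell membranes at 35 ng/μL with SPA beads, in 50 mM Hepes pH 7.4, 1 mM CaCl2, 5 mM MgCl₂, 0.1% OA, 0.02% Tween20. Incubated 120 min at 25° C with shaking. IC₅₀ from one-site competition fit.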

B1: N^ε1-[(4S)-4-carboxy-4-(19-carboxynonadecanoylamino)butanoyl]-[His14,Arg17,Pro21,Pro27,His34]-h-amylin (peptide)
peptide: K([γGlu-C20 diacid])CNTATCATQRLAHFLRHSSPNFGAIPSSTNVGHNTY-NH2
modifications: disulfide 2-7; N-terminus assumed
SMILES: CC[C@H](C)[C@H](NC(=O)[C@H](C)NC(=O)CNC(=O)[C@H](Cc1ccccc1)NC(=O)[C@H](CC(N)=O)NC(=O)[C@@H]1CCCN1C(=O)[C@H](CO)NC(=O)[C@H](CO)NC(=O)[C@H](Cc1c[nH]cn1)NC(=O)[C@H](CCCNC(=N)N)NC(=O)[C@H](CC(C)C)NC(=O)[C@H](Cc1ccccc1)NC(=O)[C@H](Cc1c[nH]cn1)NC(=O)[C@H](C)NC(=O)[C@H](CC(C)C)NC(=O)[C@H](CCCNC(=N)N)NC(=O)[C@H](CCC(N)=O)NC(=O)[C@@H](NC(=O)[C@H](C)NC(=O)[C@@H]1CSSC[C@H](NC(=O)[C@@H](N)CCCCNC(=O)CC[C@H](NC(=O)CCCCCCCCCCCCCCCCCCC(=O)O)C(=O)O)C(=O)N[C@@H](CC(N)=O)C(=O)N[C@@H]([C@@H](C)O)C(=O)N[C@@H](C)C(=O)N[C@@H]([C@@H](C)O)C(=O)N1)[C@@H](C)O)C(=O)N1CCC[C@H]1C(=O)N[C@@H](CO)C(=O)N[C@@H](CO)C(=O)N[C@H](C(=O)N[C@@H](CC(N)=O)C(=O)N[C@H](C(=O)NCC(=O)N[C@@H](Cc1c[nH]cn1)C(=O)N[C@@H](CC(N)=O)C(=O)N[C@H](C(=O)N[C@@H](Cc1ccc(O)cc1)C(N)=O)[C@@H](C)O)C(C)C)[C@@H](C)O
notes: Analogue of human amylin; disulfide and C-terminal amide as told for h-amylin; also called compound 81
IC50 [1]: 61.1 nM
Ratio rCT/rAmylin binding [2]: 42.9
Ratio hCT/hAmylin binding [3]: 87.2

B2: N^ε1-[(4S)-4-carboxy-4-(19-carboxynonadecanoylamino)butanoyl]-[His14,Arg17,Pro21,Pro27,His35]-h-amylin (peptide)
peptide: K([γGlu-C20 diacid])CNTATCATQRLAHFLRHSSPNFGAIPSSTNVGSHTY-NH2
modifications: disulfide 2-7; N-terminus assumed
SMILES: CC[C@H](C)[C@H](NC(=O)[C@H](C)NC(=O)CNC(=O)[C@H](Cc1ccccc1)NC(=O)[C@H](CC(N)=O)NC(=O)[C@@H]1CCCN1C(=O)[C@H](CO)NC(=O)[C@H](CO)NC(=O)[C@H](Cc1c[nH]cn1)NC(=O)[C@H](CCCNC(=N)N)NC(=O)[C@H](CC(C)C)NC(=O)[C@H](Cc1ccccc1)NC(=O)[C@H](Cc1c[nH]cn1)NC(=O)[C@H](C)NC(=O)[C@H](CC(C)C)NC(=O)[C@H](CCCNC(=N)N)NC(=O)[C@H](CCC(N)=O)NC(=O)[C@@H](NC(=O)[C@H](C)NC(=O)[C@@H]1CSSC[C@H](NC(=O)[C@@H](N)CCCCNC(=O)CC[C@H](NC(=O)CCCCCCCCCCCCCCCCCCC(=O)O)C(=O)O)C(=O)N[C@@H](CC(N)=O)C(=O)N[C@@H]([C@@H](C)O)C(=O)N[C@@H](C)C(=O)N[C@@H]([C@@H](C)O)C(=O)N1)[C@@H](C)O)C(=O)N1CCC[C@H]1C(=O)N[C@@H](CO)C(=O)N[C@@H](CO)C(=O)N[C@H](C(=O)N[C@@H](CC(N)=O)C(=O)N[C@H](C(=O)NCC(=O)N[C@@H](CO)C(=O)N[C@@H](Cc1c[nH]cn1)C(=O)N[C@H](C(=O)N[C@@H](Cc1ccc(O)cc1)C(N)=O)[C@@H](C)O)C(C)C)[C@@H](C)O
notes: Analogue of human amylin; disulfide and C-terminal amide as told for h-amylin; also called compound 66
IC50 [1]: 20.8 nM
Ratio rCT/rAmylin binding [2]: 35.8
Ratio hCT/hAmylin binding [3]: 45.5

B3: N^ε1-[(4S)-4-carboxy-4-[[(4S)-4-carboxy-4-(19-carboxynonadecanoylamino)butanoyl]amino]butanoyl]-[Arg17,Pro21,Pro27,His34]-h-amylin (peptide)
peptide: K([γGlu-γGlu-C20 diacid])CNTATCATQRLANFLRHSSPNFGAIPSSTNVGHNTY-NH2
modifications: disulfide 2-7; N-terminus assumed
SMILES: CC[C@H](C)[C@H](NC(=O)[C@H](C)NC(=O)CNC(=O)[C@H](Cc1ccccc1)NC(=O)[C@H](CC(N)=O)NC(=O)[C@@H]1CCCN1C(=O)[C@H](CO)NC(=O)[C@H](CO)NC(=O)[C@H](Cc1c[nH]cn1)NC(=O)[C@H](CCCNC(=N)N)NC(=O)[C@H](CC(C)C)NC(=O)[C@H](Cc1ccccc1)NC(=O)[C@H](CC(N)=O)NC(=O)[C@H](C)NC(=O)[C@H](CC(C)C)NC(=O)[C@H](CCCNC(=N)N)NC(=O)[C@H](CCC(N)=O)NC(=O)[C@@H](NC(=O)[C@H](C)NC(=O)[C@@H]1CSSC[C@H](NC(=O)[C@@H](N)CCCCNC(=O)CC[C@H](NC(=O)CC[C@H](NC(=O)CCCCCCCCCCCCCCCCCCC(=O)O)C(=O)O)C(=O)O)C(=O)N[C@@H](CC(N)=O)C(=O)N[C@@H]([C@@H](C)O)C(=O)N[C@@H](C)C(=O)N[C@@H]([C@@H](C)O)C(=O)N1)[C@@H](C)O)C(=O)N1CCC[C@H]1C(=O)N[C@@H](CO)C(=O)N[C@@H](CO)C(=O)N[C@H](C(=O)N[C@@H](CC(N)=O)C(=O)N[C@H](C(=O)NCC(=O)N[C@@H](Cc1c[nH]cn1)C(=O)N[C@@H](CC(N)=O)C(=O)N[C@H](C(=O)N[C@@H](Cc1ccc(O)cc1)C(N)=O)[C@@H](C)O)C(C)C)[C@@H](C)O
notes: Analogue of human amylin; disulfide and C-terminal amide as told for h-amylin; also called compound 86
IC50 [1]: 352 nM
Ratio rCT/rAmylin binding [2]: 126
Ratio hCT/hAmylin binding [3]: 159

B4: N^ε1-[(4S)-4-carboxy-4-[[(4S)-4-carboxy-4-(19-carboxynonadecanoylamino)butanoyl]amino]butanoyl]-[Glu14,Arg17,Pro21,Pro27,Arg34]-h-amylin (peptide)
peptide: K([γGlu-γGlu-C20 diacid])CNTATCATQRLAEFLRHSSPNFGAIPSSTNVGRNTY-NH2
modifications: disulfide 2-7; N-terminus assumed
SMILES: CC[C@H](C)[C@H](NC(=O)[C@H](C)NC(=O)CNC(=O)[C@H](Cc1ccccc1)NC(=O)[C@H](CC(N)=O)NC(=O)[C@@H]1CCCN1C(=O)[C@H](CO)NC(=O)[C@H](CO)NC(=O)[C@H](Cc1c[nH]cn1)NC(=O)[C@H](CCCNC(=N)N)NC(=O)[C@H](CC(C)C)NC(=O)[C@H](Cc1ccccc1)NC(=O)[C@H](CCC(=O)O)NC(=O)[C@H](C)NC(=O)[C@H](CC(C)C)NC(=O)[C@H](CCCNC(=N)N)NC(=O)[C@H](CCC(N)=O)NC(=O)[C@@H](NC(=O)[C@H](C)NC(=O)[C@@H]1CSSC[C@H](NC(=O)[C@@H](N)CCCCNC(=O)CC[C@H](NC(=O)CC[C@H](NC(=O)CCCCCCCCCCCCCCCCCCC(=O)O)C(=O)O)C(=O)O)C(=O)N[C@@H](CC(N)=O)C(=O)N[C@@H]([C@@H](C)O)C(=O)N[C@@H](C)C(=O)N[C@@H]([C@@H](C)O)C(=O)N1)[C@@H](C)O)C(=O)N1CCC[C@H]1C(=O)N[C@@H](CO)C(=O)N[C@@H](CO)C(=O)N[C@H](C(=O)N[C@@H](CC(N)=O)C(=O)N[C@H](C(=O)NCC(=O)N[C@@H](CCCNC(=N)N)C(=O)N[C@@H](CC(N)=O)C(=O)N[C@H](C(=O)N[C@@H](Cc1ccc(O)cc1)C(N)=O)[C@@H](C)O)C(C)C)[C@@H](C)O
notes: Analogue of human amylin; disulfide and C-terminal amide as told for h-amylin; also called compound 88
IC50 [1]: 196 nM
Ratio rCT/rAmylin binding [2]: 84.9
Ratio hCT/hAmylin binding [3]: 46.5

B5: N^ε1-[(4S)-4-carboxy-4-[[(4S)-4-carboxy-4-(19-carboxynonadecanoylamino)butanoyl]amino]butanoyl]-[Glu14,Arg17,Pro21,Pro27,Arg35]-h-amylin (peptide)
peptide: K([γGlu-γGlu-C20 diacid])CNTATCATQRLAEFLRHSSPNFGAIPSSTNVGSRTY-NH2
modifications: disulfide 2-7; N-terminus assumed
SMILES: CC[C@H](C)[C@H](NC(=O)[C@H](C)NC(=O)CNC(=O)[C@H](Cc1ccccc1)NC(=O)[C@H](CC(N)=O)NC(=O)[C@@H]1CCCN1C(=O)[C@H](CO)NC(=O)[C@H](CO)NC(=O)[C@H](Cc1c[nH]cn1)NC(=O)[C@H](CCCNC(=N)N)NC(=O)[C@H](CC(C)C)NC(=O)[C@H](Cc1ccccc1)NC(=O)[C@H](CCC(=O)O)NC(=O)[C@H](C)NC(=O)[C@H](CC(C)C)NC(=O)[C@H](CCCNC(=N)N)NC(=O)[C@H](CCC(N)=O)NC(=O)[C@@H](NC(=O)[C@H](C)NC(=O)[C@@H]1CSSC[C@H](NC(=O)[C@@H](N)CCCCNC(=O)CC[C@H](NC(=O)CC[C@H](NC(=O)CCCCCCCCCCCCCCCCCCC(=O)O)C(=O)O)C(=O)O)C(=O)N[C@@H](CC(N)=O)C(=O)N[C@@H]([C@@H](C)O)C(=O)N[C@@H](C)C(=O)N[C@@H]([C@@H](C)O)C(=O)N1)[C@@H](C)O)C(=O)N1CCC[C@H]1C(=O)N[C@@H](CO)C(=O)N[C@@H](CO)C(=O)N[C@H](C(=O)N[C@@H](CC(N)=O)C(=O)N[C@H](C(=O)NCC(=O)N[C@@H](CO)C(=O)N[C@@H](CCCNC(=N)N)C(=O)N[C@H](C(=O)N[C@@H](Cc1ccc(O)cc1)C(N)=O)[C@@H](C)O)C(C)C)[C@@H](C)O
notes: Analogue of human amylin; disulfide and C-terminal amide as told for h-amylin; also called compound 89
IC50 [1]: 115 nM
Ratio rCT/rAmylin binding [2]: 48.8
Ratio hCT/hAmylin binding [3]: 28
